Here are results for 3 molecules from patent US7579150B1, “Mobile RNA acts as a signal to regulate plant growth and development” (Iowa State University Research Foundation, Inc., priority 2004, dated 2009).

Data set [1] deals with POTH1 (full-length) in pBridge, fused to the GAL4 DNA-binding domain (Solanum tuberosum). Description: yeast two-hybrid, quantitative beta-galactosidase assay; reference: full-length construct StBEL-05 (pAD-05).
Data set [2] has as its target T1, StBEL-05/POTH1 heterodimer (Solanum tuberosum).
T1 chain 1: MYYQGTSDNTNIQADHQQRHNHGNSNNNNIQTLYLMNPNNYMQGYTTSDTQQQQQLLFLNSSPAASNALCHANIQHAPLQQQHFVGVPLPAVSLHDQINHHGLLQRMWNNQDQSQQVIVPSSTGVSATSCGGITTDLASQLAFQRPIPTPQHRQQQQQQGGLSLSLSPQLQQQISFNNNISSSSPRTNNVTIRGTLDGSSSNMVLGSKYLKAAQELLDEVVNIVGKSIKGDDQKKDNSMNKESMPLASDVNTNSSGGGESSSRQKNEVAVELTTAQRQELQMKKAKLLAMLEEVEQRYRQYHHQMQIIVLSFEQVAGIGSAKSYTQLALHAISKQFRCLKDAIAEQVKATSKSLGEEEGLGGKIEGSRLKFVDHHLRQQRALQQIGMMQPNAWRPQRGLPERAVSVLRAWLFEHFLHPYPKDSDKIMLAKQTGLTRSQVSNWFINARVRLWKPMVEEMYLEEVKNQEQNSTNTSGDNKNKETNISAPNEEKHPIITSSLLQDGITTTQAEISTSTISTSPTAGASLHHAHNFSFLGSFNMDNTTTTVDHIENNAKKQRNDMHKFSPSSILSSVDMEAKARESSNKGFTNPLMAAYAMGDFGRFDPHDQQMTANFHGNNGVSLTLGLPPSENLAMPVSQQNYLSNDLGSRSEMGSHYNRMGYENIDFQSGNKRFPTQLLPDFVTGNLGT
T1 chain 2: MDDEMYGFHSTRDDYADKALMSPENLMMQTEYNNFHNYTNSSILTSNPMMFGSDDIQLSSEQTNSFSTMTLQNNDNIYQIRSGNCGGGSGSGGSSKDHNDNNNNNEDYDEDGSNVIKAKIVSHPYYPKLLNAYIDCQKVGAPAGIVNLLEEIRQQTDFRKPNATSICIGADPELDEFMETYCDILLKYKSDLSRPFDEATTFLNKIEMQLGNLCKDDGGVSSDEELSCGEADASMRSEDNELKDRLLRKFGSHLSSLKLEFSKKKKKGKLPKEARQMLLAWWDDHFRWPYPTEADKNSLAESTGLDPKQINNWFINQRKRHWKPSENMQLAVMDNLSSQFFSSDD
Description: cell_activity. To be noted: tobacco protoplasts, GUS reporter.

For data set [3], the target named is T2, POTH1 (Solanum tuberosum).
T2 chain: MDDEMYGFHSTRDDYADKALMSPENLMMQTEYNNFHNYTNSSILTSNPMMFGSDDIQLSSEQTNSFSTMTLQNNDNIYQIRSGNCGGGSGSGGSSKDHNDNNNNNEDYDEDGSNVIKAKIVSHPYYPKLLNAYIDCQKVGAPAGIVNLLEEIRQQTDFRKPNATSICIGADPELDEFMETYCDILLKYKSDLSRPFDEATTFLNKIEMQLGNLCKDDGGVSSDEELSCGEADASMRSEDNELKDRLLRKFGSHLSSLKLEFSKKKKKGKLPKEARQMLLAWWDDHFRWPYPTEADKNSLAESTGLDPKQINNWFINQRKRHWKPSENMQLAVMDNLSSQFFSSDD
Put plainly: cell_activity. To be noted: tobacco protoplasts, GUS reporter.

The target in a further data set is T3, StBEL-05 (Solanum tuberosum).
T3 chain: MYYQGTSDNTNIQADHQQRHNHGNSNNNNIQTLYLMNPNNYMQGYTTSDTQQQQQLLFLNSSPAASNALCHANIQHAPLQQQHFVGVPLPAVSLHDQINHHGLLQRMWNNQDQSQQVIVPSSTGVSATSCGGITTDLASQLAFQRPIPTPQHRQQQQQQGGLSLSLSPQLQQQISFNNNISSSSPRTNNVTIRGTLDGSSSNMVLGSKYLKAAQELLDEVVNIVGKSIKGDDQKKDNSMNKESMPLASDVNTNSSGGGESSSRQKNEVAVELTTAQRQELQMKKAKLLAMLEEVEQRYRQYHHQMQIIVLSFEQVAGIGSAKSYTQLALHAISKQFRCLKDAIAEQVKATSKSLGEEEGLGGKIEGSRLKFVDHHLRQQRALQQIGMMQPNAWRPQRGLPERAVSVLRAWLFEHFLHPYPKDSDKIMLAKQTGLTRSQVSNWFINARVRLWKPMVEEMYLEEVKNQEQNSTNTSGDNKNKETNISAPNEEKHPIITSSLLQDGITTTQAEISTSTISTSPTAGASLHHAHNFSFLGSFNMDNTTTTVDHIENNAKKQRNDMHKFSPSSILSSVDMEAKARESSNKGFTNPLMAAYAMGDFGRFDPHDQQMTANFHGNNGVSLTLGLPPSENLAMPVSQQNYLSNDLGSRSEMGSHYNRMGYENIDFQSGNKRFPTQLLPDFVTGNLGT
Description: cell_activity. The following applies: tobacco protoplasts, GUS reporter.

The next data set deals with ga20ox1 promoter. Description: Transcription (transfection) assay, pGAOP::GUS reporter in tobacco protoplasts. It counts as cell-based, potato. An excerpt: The cauliflowermosaic virus (CaMV) 35S promoter in pBI221 (Clontech, Palo Alto, Calif.) was replaced by an enhancer fragment (−832 to −50) of the 35S promoter plus 980 bp of the ga20ox1 promoter to generate the pGAOP::β-glucuronidase (GUS) reporter construct. With this construct, the reporter GUS transcription level is augmented but its transcription may still be affected by the ga20ox1 promoter. A CaMV 35S promoter-driven luciferase (LUC) construct 35S-LUC (obtained from Dr. Takahashi, Dept. of Biological Sciences, Graduate School of Science, Univ. of Tokyo, Japan) was used as an internal control. Effector constructs were also generated by using pBI221 vector as a backbone, with the GUS gene replaced by the full-length cDNAs of either StBEL-05 or POTH1, downstream of the CaMV 35S promoter. Truncated cDNAs that encode the N-terminal protein-binding domains of StBEL-05 or POTH1 were used to generate the dominant negative constructs, StBEL5ΔC295 and POTH1ΔC122, respectively. The reporter construct with the mutated promoter was generated by site-directed PCR mutagenesis with oligos 5′-CTATTTGACTTC*ACACGGTTATTT-3′ (SEQ ID NO:23) and 5′-AAATAACCGTGTG*AAGTCAAATAG-3′ (SEQ ID NO:24).
Fully expanded leaves from three- to four-week-old tobacco plants were excised and placed in K3 basal media (Kao et al., “Nutritional Requirements for Growth of Vicia hajastana Cells and Protoplasts at a Very Low Density in Liquid Media,” Planta 126:105-110 (1975), which is hereby incorporated by reference in its entirety) supplemented with 0.4 M sucrose, 0.25% (w-v) cellulases (Karlan Research Products, Santa Rosa, CA), and 0.05% (w-v) macerases (Calbiochem, La Jolla, Calif.) and incubated for overnight at 28° C. After incubation, the liberated protoplasts were filtered through sterile cheesecloth into a Babcock bottle, and centrifuged for 10 minutes at 1000 rpm. Protoplasts were collected from the bottleneck area and washed once in K3 media with 0.4 M sucrose and resuspended in K3 media containing 0.4 M glucose to a final concentration of 4×10^6 protoplasts per milliliter. […]
Luciferase assays were performed by injecting 100-μL luciferase substrate (Promega, Madison, Wis.) into 20 μL of extract and measuring the emitted photons for 15 seconds in a TD-20 luminometer (Turner Designs, Sunnyvale, Calif.). […] A fluorescence multiwell plate reader, Fluoroskan II (MTX labs, Vienna, Va.), was used to measure GUS activity at 365 nm (excitation) and 455 nm (emission). Each sample was measured three times for both LUC and GUS activity. Relative GUS-LUC activity was calculated by dividing the ratio of GUS activity to LUC activity from different effectors with the ratio from reporter plasmid alone. Relative activities calculated from three transfection replications were presented as a mean±SE.

The test system of another data set is CaMV 35S promoter. Put plainly: Transcription (transfection) assay, 35S GUS construct in tobacco protoplasts. It is filed as cell-based, cauliflower mosaic virus.
Data set [4] deals with POTH1. Put plainly: Yeast two-hybrid interaction with POTH1 (nutritional selection, beta-galactosidase). It is filed as cell-based, potato. The following applies: yeast strain AH109, nutritional markers and lacZ. An excerpt: The Matchmaker two-hybrid system (Clontech, CA) was used for the yeast two-hybrid screen. Yeast transformation and plasmid rescue into DH5-a E. coli cells were according to the manufacturer's instructions. Full-length POTH1 was cloned into the pBridge (Clontech, CA) vector and used as bait to screen the potato (S. tuberosum ‘Desireé’) stolon cDNA library in pAD-GAL4-2.1 (Stratagene, Calif.). Positive interactions were confirmed by cotransforming yeast strain AH109 with each purified pAD plasmid and pBridge: POTH1 and plating on -leucine/-tryptophan (transformation control) and -leucine/-tryptophan/-histidine/-adenine (selection) nutrient medium. Induction of the AH109 reporter gene, lacZ, was measured with a yeast β-galactosidase assay kit (Pierce Chemicals). β-galactosidase activity (FIG. 9B) was determined from a known density of yeast cells and calculated as 1000×OD420/time of color reaction (minutes)×volume of yeast culture (ml)×OD600.
The StBEL-05 deletion constructs were amplified by PCR, then cloned into the vector, pGAD, in-frame with the GAL4 activation domain. POTH1 deletion constructs were amplified by PCR, and cloned into pBridge (Clontech) in-frame with the GAL4 binding domain. Sequencing of selected cDNAs and constructs was performed at the Iowa State University DNA Facility. For deletion analysis, modified constructs of POTH1 were cloned into the pBridge vector for fusion with the DNA-binding domain of GAL4 (FIG. 10A). For StBEL-05, constructs were cloned into the pGAD vector for fusion with the activating domain of GAL4 (FIG. 10B). Deletion constructs were made from both the amino and carboxy termini. These mutants were then tested for interaction in the yeast two-hybrid system by cotransforming into yeast strain AH109 with the corresponding full-length partner (StBEL-05 in pGAL4 or POTH1 in pBridge). All constructs were sequenced to verify that they were in-frame. Positive interactions were verified for lacZ induction by using a β-galactosidase assay (Pierce Chemical Company). For POTH1, seven deletion constructs were tested (FIG. 10A). For the BEL TFs, a fusion construct of StBEL-05 (653 aa of StBEL-05 sequence) and nine deletion constructs were tested (FIG. 10B).

Data set [5] deals with ga20ox1 promoter regions P1, P2, P3 and first intron. Description: Gel retardation (gel mobility shift) assay. To be noted: recombinant protein from E. coli. It counts as binding, potato. An excerpt:
The first intron with partial flanking exon sequence (450 bp) of potato ga20ox1 and its promoter (981 bp, provided by Dr. Salomé Prat, CSIC Cantoblanco Campus, Univ. of Madrid, Spain) were used for gel mobility shift assays. Polymerase chain reaction (PCR) was used to amplify three regions of the promoter: −981 to 636 (P1), −660 to 307 (P2), and −331 to 0 (P3). About a 25-bp overlap was maintained between P1 and P2 or P2 and P3 in the chance that the protein-binding site would span the overlapped region. The first intron of this gene was amplified from potato genomic DNA by using PCR and the oligos 5′-[…]-3′ (SEQ ID NO:21) and 5′-[…]-3′ (SEQ ID NO:22) as primers. These primers were designed based on the site of the first intron of the tobacco GA20 oxidase gene Ntc12. The four fragments were purified on a 1.4% agarose gel and labeled with α^32P-dATP using Klenow fragment. […]
In the competition assays, unlabeled double-stranded DNA fragments (10×, 25×, 50×, 100×) were incubated with the recombinant protein before the addition of the radioactive probe. The dissociation rates were determined by adding 500-fold more cold DNA fragments to the DNA-binding reactions that were being incubated on ice, and loaded onto the running gel every 10 minutes. […]

Where only a bound is given, the exact number is not on record here.

Molecule “pAD5-1, StBEL-05 deletion construct in pGAD (GAL4 activation domain fusion)” returned a decrease in the induction of the lacZ marker (beta-galactosidase activity) relative to the full-length construct, StBEL-05 in data set [1] of 55%.
As for ga20ox1 promoter reporter (980 bp), the activity is 80 % repression in data set [2], above 50 % repression in the data set with POTH1 [3] and above 50 % repression in the data set with StBEL-05.

B1: StBEL-05: BEL transcription factor from Solanum tuberosum, SEQ ID NO:2, 688 aa (protein, listed as Solanum tuberosum)
chain: MYYQGTSDNTNIQADHQQRHNHGNSNNNNIQTLYLMNPNNYMQGYTTSDTQQQQQLLFLNSSPAASNALCHANIQHAPLQQQHFVGVPLPAVSLHDQINHHGLLQRMWNNQDQSQQVIVPSSTGVSATSCGGITTDLASQLAFQRPIPTPQHRQQQQQQGGLSLSLSPQLQQQISFNNNISSSSPRTNNVTIRGTLDGSSSNMVLGSKYLKAAQELLDEVVNIVGKSIKGDDQKKDNSMNKESMPLASDVNTNSSGGGESSSRQKNEVAVELTTAQRQELQMKKAKLLAMLEEVEQRYRQYHHQMQIIVLSFEQVAGIGSAKSYTQLALHAISKQFRCLKDAIAEQVKATSKSLGEEEGLGGKIEGSRLKFVDHHLRQQRALQQIGMMQPNAWRPQRGLPERAVSVLRAWLFEHFLHPYPKDSDKIMLAKQTGLTRSQVSNWFINARVRLWKPMVEEMYLEEVKNQEQNSTNTSGDNKNKETNISAPNEEKHPIITSSLLQDGITTTQAEISTSTISTSPTAGASLHHAHNFSFLGSFNMDNTTTTVDHIENNAKKQRNDMHKFSPSSILSSVDMEAKARESSNKGFTNPLMAAYAMGDFGRFDPHDQQMTANFHGNNGVSLTLGLPPSENLAMPVSQQNYLSNDLGSRSEMGSHYNRMGYENIDFQSGNKRFPTQLLPDFVTGNLGT
For B1, the “decrease of relative GUS-LUC activity of the pGAOP::GUS reporter” value in the data set with ga20ox1 promoter (co-transfected effector, tobacco protoplasts) was “more than half”. Moreover, in the data set on ga20ox1 promoter (mutated reporter construct), the “repression of ga20ox1 promoter with point mutation in the binding site” value is reported as “no detectable repression of promoter activity”. Further, the “effect on activity of the CaMV 35S promoter” value in the data set with CaMV 35S promoter is on record as “Neither StBEL-05 nor POTH1 showed any effect”. For the same molecule, in the data set with POTH1 [4], the “interaction with POTH1” value is recorded as “showed selective interaction”. In addition, the “binding to ga20ox1 regulatory regions” value in data set [5] is “retarded the mobility of all three promoter sequences and the first intron”.
